Laboratory results as given in patent US20140178389A1.

Legend:
[1] = biological target: recombinant human IL-1β (human) (UniProt P01584); assay: flow cytometry of yeast-displayed scFv, titration of biotinylated IL-1b, 25 °C, 30 min, mean fluorescence [Parental]
[2] = biological target: recombinant cynomolgus IL-1β (cynomolgus) (UniProt P79182); assay: as above
[3] = biological target: recombinant human IL-1β (human) (UniProt P01584); assay: yeast surface display, flow cytometry with biotinylated antigen
[4] = biological target: recombinant cynomolgus IL-1β (cynomolgus) (UniProt P79182); assay: as above

Sequence of recombinant cynomolgus IL-1β (cynomolgus) (P79182 117-268 limits assumed): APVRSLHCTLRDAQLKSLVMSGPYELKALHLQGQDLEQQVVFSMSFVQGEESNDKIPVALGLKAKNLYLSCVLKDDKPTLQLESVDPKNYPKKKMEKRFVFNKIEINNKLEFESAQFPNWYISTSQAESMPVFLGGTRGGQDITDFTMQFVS
Sequence of recombinant human IL-1β (human) (P01584 117-269): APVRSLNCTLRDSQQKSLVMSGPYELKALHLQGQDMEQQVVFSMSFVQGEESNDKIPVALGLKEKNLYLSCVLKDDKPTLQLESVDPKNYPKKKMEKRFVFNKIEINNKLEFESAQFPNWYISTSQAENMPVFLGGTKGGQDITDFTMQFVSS

EC50 [1]: 15.1 nM
EC50 [2]: 23.5 nM
Kd [3]: 10 to 30 nM
Kd [4]: 10 to 30 nM
B1: h1B12.1 scFv displayed on the surface of yeast (scFv, part only; not given: linker, domain order, yeast display partner, V domains shown, not shown: another chain or arm of the molecule; large carriers; small tags and cut ends)
VH: EVQLQESGPGLVKPSETLSLTCTVSGFSLSDYGVSWIRQPPGKGLEWLGLIWGGGDTYYNSPLKSRLTISKDNSKSQVSLKLSSVTAADTAVYYCAKQRTLWGYDLYGMDYWGQGTLVTVSS
VL: DTQVTQSPSSLSASVGDRVTITCITSTDIDVDMNWYQQKPGKPPKLLISQGNTLRPGVPSRFSSSGSGTDFTFTISSLQPEDFATYYCLQSDNLPLTFGQGTKLEIK
